The values below come from US20200283539A1.

The target of the assay is CD33 on HL60 leukemia cells (human) (UniProt P20138). The experiment in a line: cell-based or functional assay.
Sequence of CD33 on HL60 leukemia cells (human) (P20138 18-364 limits assumed): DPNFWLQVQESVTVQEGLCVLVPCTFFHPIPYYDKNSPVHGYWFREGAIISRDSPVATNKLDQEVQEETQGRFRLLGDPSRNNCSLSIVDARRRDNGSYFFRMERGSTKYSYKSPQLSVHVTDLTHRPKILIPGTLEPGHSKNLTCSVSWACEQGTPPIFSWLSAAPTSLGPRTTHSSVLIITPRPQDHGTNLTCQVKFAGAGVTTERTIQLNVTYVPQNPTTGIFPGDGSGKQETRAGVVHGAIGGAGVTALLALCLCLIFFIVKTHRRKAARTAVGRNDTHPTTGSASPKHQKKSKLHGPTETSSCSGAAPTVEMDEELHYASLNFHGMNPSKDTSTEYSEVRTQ

“Lintuzumab conjugated with Actinium-225 (antibody)” registered an LD50 (dose at which 50% of the cells were killed), HL60 cell suspension of 8 pCi/mL.
